T1: mouse TNC rCd4-His-FBG (rat; mouse, UniProt P05540 207-386)
T1 construct: domain: domains 3 and 4; also called Mu TNC; mouse TNC FBG
T1 sequence: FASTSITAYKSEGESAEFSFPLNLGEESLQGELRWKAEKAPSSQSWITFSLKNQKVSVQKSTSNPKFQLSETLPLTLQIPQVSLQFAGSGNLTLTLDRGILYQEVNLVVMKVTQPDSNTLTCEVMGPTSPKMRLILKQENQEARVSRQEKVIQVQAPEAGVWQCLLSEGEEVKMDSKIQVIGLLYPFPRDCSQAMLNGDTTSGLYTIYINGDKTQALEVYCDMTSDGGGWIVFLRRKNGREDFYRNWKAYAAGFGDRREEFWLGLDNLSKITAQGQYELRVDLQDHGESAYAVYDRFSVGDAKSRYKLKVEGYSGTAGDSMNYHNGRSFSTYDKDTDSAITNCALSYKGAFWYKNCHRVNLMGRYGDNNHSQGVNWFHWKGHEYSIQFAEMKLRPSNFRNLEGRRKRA

T2: human TNC rCd4-His-FBG (rat; human, UniProt P05540 207-386)
T2 construct: domain: domains 3 and 4; Biotinylated in the ELISA and HTRF assays; also called Hu TNC; human TNC FBG
T2 sequence: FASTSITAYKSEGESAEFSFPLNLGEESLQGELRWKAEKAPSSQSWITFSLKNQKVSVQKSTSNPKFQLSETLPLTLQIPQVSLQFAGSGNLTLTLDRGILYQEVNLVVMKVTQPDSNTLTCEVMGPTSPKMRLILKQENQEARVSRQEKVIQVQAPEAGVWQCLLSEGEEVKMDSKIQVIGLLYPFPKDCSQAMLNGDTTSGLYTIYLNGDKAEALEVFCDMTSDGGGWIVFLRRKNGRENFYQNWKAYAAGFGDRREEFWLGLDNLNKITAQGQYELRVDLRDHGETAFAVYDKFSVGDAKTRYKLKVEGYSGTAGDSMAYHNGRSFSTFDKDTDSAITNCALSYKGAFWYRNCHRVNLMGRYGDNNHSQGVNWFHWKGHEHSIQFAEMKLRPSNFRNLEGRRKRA


Key:
mouse TNC rCd4-His-FBG = target: T1, mouse TNC rCd4-His-FBG; experiment: anti-FLAG capture DELFIA ELISA, scFv supernatant, biotinylated mouse rCd4-His-FBG
Procedure: E. coli clones harbouring scFv pSANG10 expression plasmids were induced in 96-well plates with auto-induction media as described previously (Schofield et al, 2007). E. coli supernatants were harvested for ELISA assays. ELISA used the DELFIA (dissociation enhanced lanthanide fluorescent immunoassay) system with Europium-labelled anti-FLAG antibody (Sigma, Aldrich, UK). Black immunosorb plates (Nunc) were coated overnight with anti-FLAG M2 antibody (Sigma, F3165, 5 μg/ml in PBS, 50 μl per well), in wells blocked by the addition of 2% milk powder, PBS (PBS-M, 300 μl per well). Plates were washed three times with PBS-T (PBS, 0.1% Tween-20) and three times with PBS followed by the addition of a 1:2 dilution of 96-well auto-induction culture supernatants containing expressed scFv in PBS-M (50 μl per well). The plates were incubated for 1 h, washed as above and biotinylated mouse or human rCd4-His-FBG (5 μg/ml in PBS-M, 50 μl) added to each well. Plates were incubated for a further 1 h, washed and Strepravidin-Eu added (Perkin Elmer, 1 μg/ml, PBS-M, 50 μl), incubated for 30 min, washed and DELFIA enhancement solution added (50 μl) and plates read on a Perkin Elmer Fusion plate reader (excitation=320 nm, emission 620 nm). The format of the assay is shown in.

human TNC rCd4-His-FBG = target: T2, human TNC rCd4-His-FBG; experiment: HTRF competition, scFv supernatant, competitor d2-labelled B12 IgG, biotinylated human rCd4-His-FBG
Procedure: An HTRF-based competition assay was developed to screen for antibody variants with improved binding to human TNC FBG.
All samples and reagents were prepared in assay buffer (50 mM NaPO₄, 0.1% BSA, 0.4 M KF, pH 7.0) at 4× the stated concentration. 5 μl of each reagent was subsequently added to low volume 384-well assay plates (Greiner, 784075) to give a final reaction volume of 20 μl. IgG antibodies were labelled using the d2 labelling kit (CisBio, 62D2DPEA) as directed by the manufacturer. Streptavidin europium cryptate (CisBio, 610SAKLA, Lot#25C) was used at a final concentration of 1.8 ng active moiety (SA) per 20 μl reaction as recommended by the manufacturer. Biotinylated rCd4-His-FBG was prepared using EZ-link Sulfo-NHS-LC-Biotin reagent (Thermo Scientific, 21327) the extent of biotinylation was quantified using biotinylation fluorescence quantitation kit (Thermo Scientific, 46610). Where appropriate, supernatants containing scFv (prepared as described above for ELISA assays) were added to the 384-well assay plate at a final dilution of 1/20 (i.e. 1/5 dilution in assay buffer followed by addition of 5 μl diluted sample to the 20 μl FRET assay). […] Unless otherwise stated, biotinylated rCd4-His-FBG (biotin:protein ratio=1.8:1) was present at either 2.2 nM (in assays using the 2A5 IgG antibody) or 1 nM (in experiments using B12 IgG). Samples were incubated for approximately 1 h at room temperature and the FRET signal was determined using a BMG Pherastar instrument: excitation=320 nm; emission=620 nm and 665 nm; integration start time=60 μs; integration time=500 μs; 100 flashes per well. For competition assays containing culture supernatant, biotinylated rCd4-His-FBG antigen was pre-incubated with streptavidin europium cryptate for 45 min prior to addition of reagents to the assay plate. All FRET signals are presented as ΔR, where R=(E665/E620×104) and ΔR=(Rsample−Rbackground fluorescence).
Culture supernatants containing unlabelled scFv clones from affinity selected mutant libraries were tested for inhibition of the interaction between FBG and the fluorophore-labelled parental IgG antibody.

| Binder | fold improvement for mouse FBG binding (against the parent B12) (mouse TNC rCd4-His-FBG) [fold] | % inhibition of HTRF signal (human TNC rCd4-His-FBG) [%] |
| --- | --- | --- |
| 165_13_D1 scFv (scFv, V domains shown, VH CDR3 GTRGEGDTFDI; not shown: scFv linker, domain order, and the tags of the pSANG10 vector (FLAG and others)) VH: QVQLVESGGGLVQPGRSLRLSCAASGFTFDDYAMHWVRQAPGKGLEWVSGISGSGGSTYYADSVKGRFTISRDNAKNSLYLQMNSLRAEDTALYYCAKGTRGEGDTFDIWGQGTMVTVSS VL: DIQMTQSPASLPTPVGDRVTITCRASQYIQGFLNWYQQKPGKAPKLLIYDASNLETGVPSRFSGSGSGTDFTLTISSLQPEDFATYYCQQSYSTPQTFGQGTKVDIK | ≥ 4 | 91 |
| 165_13_E1 scFv (scFv, V domains shown, not shown: small tags and cut ends, VH CDR3 DISAVMDVPQT; 48 is used) VH: QVQLVESGGGLVQPGRSLRLSCAASGFTFDDYAMHWVRQAPGKGLEWVSGISGSGGSTYYADSVKGRFTISRDNAKNSLYLQMNSLRAEDTALYYCAKDISAVMDVPQTWGQGTMVTVSS VL: DIQMTQSPASLPTPVGDRVTITCRASQYIQGFLNWYQQKPGKAPKLLIYDASNLETGVPSRFSGSGSGTDFTLTISSLQPEDFATYYCQQSYSTPQTFGQGTKVDIK | ≥ 4 | 91 |
| 165_13_C3 scFv (scFv, V domains shown, VH CDR3 SYQSDEDAFDI; Antibody C3 of the B12 family; not shown: scFv linker, domain order, and the tags of the pSANG10 vector (FLAG and others)) VH: QVQLVESGGGLVQPGRSLRLSCAASGFTFDDYAMHWVRQAPGKGLEWVSGISGSGGSTYYADSVKGRFTISRDNAKNSLYLQMNSLRAEDTALYYCAKSYQSDEDAFDIWGQGTMVTVSS VL: DIQMTQSPASLPTPVGDRVTITCRASQYIQGFLNWYQQKPGKAPKLLIYDASNLETGVPSRFSGSGSGTDFTLTISSLQPEDFATYYCQQSYSTPQTFGQGTKVDIK | ≥ 4 | 91 |
| 165_13_B3 scFv (scFv, V domains shown, not shown: small tags and cut ends, VH CDR3 ALARGHDTFDI) VH: QVQLVESGGGLVQPGRSLRLSCAASGFTFDDYAMHWVRQAPGKGLEWVSGISGSGGSTYYADSVKGRFTISRDNAKNSLYLQMNSLRAEDTALYYCAKALARGHDTFDIWGQGTMVTVSS VL: DIQMTQSPASLPTPVGDRVTITCRASQYIQGFLNWYQQKPGKAPKLLIYDASNLETGVPSRFSGSGSGTDFTLTISSLQPEDFATYYCQQSYSTPQTFGQGTKVDIK | ≥ 4 | 91 |
| 165_13_A4 scFv (scFv, V domains shown, VH CDR3 DKYPVLDTFDI; not shown: scFv linker, domain order, and the tags of the pSANG10 vector (FLAG and others)) VH: QVQLVESGGGLVQPGRSLRLSCAASGFTFDDYAMHWVRQAPGKGLEWVSGISGSGGSTYYADSVKGRFTISRDNAKNSLYLQMNSLRAEDTALYYCAKDKYPVLDTFDIWGQGTMVTVSS VL: DIQMTQSPASLPTPVGDRVTITCRASQYIQGFLNWYQQKPGKAPKLLIYDASNLETGVPSRFSGSGSGTDFTLTISSLQPEDFATYYCQQSYSTPQTFGQGTKVDIK | ≥ 4 | 91 |

The remaining lines, values ahead:

| fold improvement for mouse FBG binding (against the parent B12) (mouse TNC rCd4-His-FBG) [fold] | % inhibition of HTRF signal (human TNC rCd4-His-FBG) [%] | Binder |
| --- | --- | --- |
| ≥ 4 | 91 | 165_13_B1 scFv (scFv, V domains shown, VH CDR3 VMSSMEDAFDI; not shown: scFv linker, domain order, and the tags of the pSANG10 vector (FLAG and others)) VH: QVQLVESGGGLVQPGRSLRLSCAASGFTFDDYAMHWVRQAPGKGLEWVSGISGSGGSTYYADSVKGRFTISRDNAKNSLYLQMNSLRAEDTALYYCAKVMSSMEDAFDIWGQGTMVTVSS VL: DIQMTQSPASLPTPVGDRVTITCRASQYIQGFLNWYQQKPGKAPKLLIYDASNLETGVPSRFSGSGSGTDFTLTISSLQPEDFATYYCQQSYSTPQTFGQGTKVDIK |
| ≥ 4 | 91 | 165_13_D4 scFv (scFv, V domains shown, VH CDR3 GTVGEGDTFDI; not shown: scFv linker, domain order, and the tags of the pSANG10 vector (FLAG and others)) VH: QVQLVESGGGLVQPGRSLRLSCAASGFTFDDYAMHWVRQAPGKGLEWVSGISGSGGSTYYADSVKGRFTISRDNAKNSLYLQMNSLRAEDTALYYCAKGTVGEGDTFDIWGQGTMVTVSS VL: DIQMTQSPASLPTPVGDRVTITCRASQYIQGFLNWYQQKPGKAPKLLIYDASNLETGVPSRFSGSGSGTDFTLTISSLQPEDFATYYCQQSYSTPQTFGQGTKVDIK |
| ≥ 4 | 91 | 165_13_B6 scFv (scFv, V domains shown, VH CDR3 GQKGEGDTFDI; not shown: scFv linker, domain order, and the tags of the pSANG10 vector (FLAG and others)) VH: QVQLVESGGGLVQPGRSLRLSCAASGFTFDDYAMHWVRQAPGKGLEWVSGISGSGGSTYYADSVKGRFTISRDNAKNSLYLQMNSLRAEDTALYYCAKGQKGEGDTFDIWGQGTMVTVSS VL: DIQMTQSPASLPTPVGDRVTITCRASQYIQGFLNWYQQKPGKAPKLLIYDASNLETGVPSRFSGSGSGTDFTLTISSLQPEDFATYYCQQSYSTPQTFGQGTKVDIK |

— US20190225680A1 (NASCIENT, published 2019)
